In patent US9265845B2, “Imaging methods using engineered integrin binding peptides” (The Board of Trustees of the Leland Stanford Junior …, priority 2006, dated 2016):
Where two headings read alike, the source gives them in different places. Positions of bridges follow the written chain, without caps; N, C: chain ends. Residues, ends and D or L forms follow the SMILES beside them. *: point of attachment. DOTA = O=C(O)CN1CCN(CC(=O)O)CCN(CC(=O)*)CCN(CC(=O)O)CC1

What was measured:
[1] = MicroPET imaging and biodistribution of radiolabeled peptides in U87MG tumor-bearing mice; type: in vivo, mouse; conditions: female, athymic nude (nu/nu), mouse, in vivo, iv, total radioactivity; for tissue uptake at 0.5 h: 0.5 h post injection; for tissue uptake at 2 h: 2 h post injection; for tissue uptake at 4 h: 4 h post injection; for tissue uptake at 25 h: 25 h post injection
Procedure: (§1) MicroPET imaging of tumor-bearing mice is performed on a microPET R4 rodent model scanner (Concorde Microsystems Inc, Knoxyille, Tenn.). U87MG tumor bearing mice are injected with PET imaging agent via the tail vein. At various times post injection, the mice are anesthetized with 2% isoflurane, and 10 min static scans are obtained. Images are reconstructed by a two-dimensional ordered expectation maximum subset algorithm as previously described. Regions of interest (ROI) are drawn over the tumor on decay corrected whole body images and ROI derived % injected dose per gram of tissue is determined. Statistical analysis is performed using the student's t-test for unpaired data. A 95% confidence level is used to determine statistical significance.
(§2) Female athymic mice bearing U87MG tumors were injected with 80-150 μCi of ^64Cu-DOTA-knottin 2.5D or 7-9 μCi of [^18F]-FB-E[knottin 2.5D]. Static images were taken at various timepoints post injection using a microPET R4 rodent model scanner (Concorde Microsystems Inc, Knoxyille, Tenn.). […] Uptake was also observed in the kidney as both probes cleared through the bladder.
(§3) Mice are sacrificed by exanguinations at various time points postinjection. Blood, tumor and the major organs and tissues are collected, wet-weighed and measured in a γ-counter. The % injected dose per gram is determined for each sample. For each mouse, radioactivity of the tissue samples is calibrated against a known aliquot of the injectate. Values are reported as the mean±standard deviation.
(§4) The following Table 10 quantifies the ^64Cu-DOTA knottin uptake by direct tissue sampling of the mice up to 24 hours post injection and is reported in % ID (percent injected dose)/gram. Similar results were obtained with [^18F]-FB-E[knottin 2.5D].
(§5) A U87MG glioblastoma xenograft mouse model was used. U87MG cells were maintained at 37° C. in a humidified atmosphere containing 5% CO2 in Dulbecco's modified eagle medium, 10% heat-inactivated fetal bovine serum, and penicillin-streptomycin (all from Invitrogen). Animal procedures were carried out according to a protocol by Stanford University Administrative Panels on Laboratory Animal Care. Female athymic nude mice (nu/nu), obtained at 4-6 weeks of age (Charles River Laboratories, Inc.), were injected subcutaneously in the right or left shoulder with 2×10^7 U87MG glioblastoma cells suspended in 100 μL of PBS. Mice were used for in vivo imaging studies when their tumors reached approximately 8 to 10 millimeters in diameter.
(§6) U87MG tumor-bearing mice (n=3 or more for each probe) were injected with ˜100 μCi of ^64Cu-DOTA-conjugated peptides via the tail vein and imaged with a microPET R4 rodent model scanner (Siemens Medical) using 3 or 5 min static scans. […] Images were reconstructed by a two dimensional ordered expectation maximum subset algorithm and calibrated as previously described (Wu, Y, Zhang, X, Xiong, Z, et al. microPET imaging of glioma integrin {alpha}v{beta}3 expression using (64)Cu-labeled tetrameric RGD peptide. J Nucl Med 2005; 46:1707-18). ROIs were drawn over the tumor on decay-corrected whole body images using ASIPro VM software (Siemens Medical). The mean counts per pixel per minute were obtained from the ROI and converted to counts per milliliter per minute with a calibration constant. ROIs were converted to counts/g/min, and % ID/g values were determined assuming a tissue density of 1 g/mL. No attenuation correction was performed.

U87MG tumor = test: as above; type: in vivo, mouse; conditions: radiolabeled peptides, U87MG tumor-bearing mice
Procedure: as §1, §2, §3, §4, §5, §6

αvβ3 integrin = αvβ3 integrin (Homo sapiens, UniProt P05106+P06756); test: Yeast-displayed peptide binding to soluble αvβ3 integrin, flow cytometry; conditions: yeast-displayed peptides
Sequence of αvβ3 integrin (P06756 31-889 limits assumed): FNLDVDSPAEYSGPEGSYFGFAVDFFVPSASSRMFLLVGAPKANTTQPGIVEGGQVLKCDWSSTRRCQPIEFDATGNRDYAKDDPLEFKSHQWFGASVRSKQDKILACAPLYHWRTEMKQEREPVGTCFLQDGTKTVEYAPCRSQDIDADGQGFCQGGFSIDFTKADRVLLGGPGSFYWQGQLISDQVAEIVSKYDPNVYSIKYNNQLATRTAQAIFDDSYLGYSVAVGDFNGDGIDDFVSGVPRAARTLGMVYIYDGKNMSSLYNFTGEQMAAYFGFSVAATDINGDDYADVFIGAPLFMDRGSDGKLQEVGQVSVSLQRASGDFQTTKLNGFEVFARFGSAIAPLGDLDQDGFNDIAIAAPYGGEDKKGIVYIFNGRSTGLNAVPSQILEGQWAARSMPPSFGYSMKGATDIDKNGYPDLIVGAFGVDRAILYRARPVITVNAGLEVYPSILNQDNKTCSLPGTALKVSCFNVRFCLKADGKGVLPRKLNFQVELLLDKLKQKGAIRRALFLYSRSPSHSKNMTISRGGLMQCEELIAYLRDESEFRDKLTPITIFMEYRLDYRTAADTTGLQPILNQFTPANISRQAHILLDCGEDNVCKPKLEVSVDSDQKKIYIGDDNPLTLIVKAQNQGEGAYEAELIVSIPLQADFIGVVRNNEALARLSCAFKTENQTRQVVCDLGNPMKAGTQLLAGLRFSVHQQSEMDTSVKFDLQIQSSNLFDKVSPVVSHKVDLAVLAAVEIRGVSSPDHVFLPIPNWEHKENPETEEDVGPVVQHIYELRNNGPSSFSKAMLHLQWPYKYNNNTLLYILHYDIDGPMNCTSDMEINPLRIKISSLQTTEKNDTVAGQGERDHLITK
Sequence of αvβ3 integrin (P06756 891-1048 partner limits assumed): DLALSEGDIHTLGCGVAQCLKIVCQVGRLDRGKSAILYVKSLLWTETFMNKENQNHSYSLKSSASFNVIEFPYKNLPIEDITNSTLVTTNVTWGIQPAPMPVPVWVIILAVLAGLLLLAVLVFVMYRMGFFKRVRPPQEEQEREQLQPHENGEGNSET
Sequence of αvβ3 integrin (P05106 27-788): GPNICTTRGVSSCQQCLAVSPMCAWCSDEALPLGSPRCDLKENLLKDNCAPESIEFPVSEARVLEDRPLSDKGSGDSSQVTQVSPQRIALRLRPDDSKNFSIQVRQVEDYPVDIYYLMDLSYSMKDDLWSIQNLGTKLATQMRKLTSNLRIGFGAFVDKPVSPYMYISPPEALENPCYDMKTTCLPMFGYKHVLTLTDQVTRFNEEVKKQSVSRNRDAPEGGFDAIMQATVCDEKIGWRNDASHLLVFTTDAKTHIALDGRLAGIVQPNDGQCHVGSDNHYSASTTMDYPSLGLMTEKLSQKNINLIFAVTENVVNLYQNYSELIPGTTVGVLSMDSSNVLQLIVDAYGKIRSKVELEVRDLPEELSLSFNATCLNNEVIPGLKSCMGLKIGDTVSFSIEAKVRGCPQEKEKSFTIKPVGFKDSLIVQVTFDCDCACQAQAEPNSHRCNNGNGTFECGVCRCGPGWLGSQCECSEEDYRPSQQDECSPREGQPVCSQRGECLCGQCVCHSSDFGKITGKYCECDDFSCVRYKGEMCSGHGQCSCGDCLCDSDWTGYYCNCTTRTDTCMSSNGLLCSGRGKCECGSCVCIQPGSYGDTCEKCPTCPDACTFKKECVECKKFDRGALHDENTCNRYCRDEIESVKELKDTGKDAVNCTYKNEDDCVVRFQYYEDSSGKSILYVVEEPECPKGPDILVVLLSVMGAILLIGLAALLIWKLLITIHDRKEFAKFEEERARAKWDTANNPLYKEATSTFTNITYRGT
Procedure: The yeast display construct shown in FIG. 1A has the general orientation: Aga2-HA-engineered knottin—c-myc epitope, with the c-myc epitope at the carboxy terminus of the peptide. […] Bound integrin is detected with an anti-integrin antibody, labeled with FITC.
Below is a typical protocol to label a yeast library samples for sorting by flow cytometry (FACS): • 1. Want 2×10^6 cells, OD600 of […] • 2. Add 1 mL PBS/BSA (phosphate buffered saline containing 1 mg/mL bovine serum albumin) to wash cells • 3. Spin down cells 3 min at 8000 RPM • 4. Remove supernatant using vacuum • 5. Re-suspend in 40 μL PBS/BSA containing proper amount of integrin (100 nM [2.5 μL of stock αvβ3]; no anti-cmyc at this point) • 6. Incubate for 1.5 h at r.t (w/tumbling) • 7. Add 1:250 dilution of (chick anti-cmyc) to labeling solution • 8. […] Incubate 1 h at 4° C. (w/tumbling) • 10. Keep on ice after this step. • 11. Spin down cells 3 min at 8000 RPM, 4° C. and vacuum supernatant • 12. Repeat wash steps 2-4 • 13. Re-suspend in 40 μL PBS/BSA containing proper amount of secondary labels (secondary labeling is simultaneous) • i. Anti-integrin Ab (FITC conj): 1:25 dilution+Anti-chick (Alexa 555): 1:100 dilution • ii. Positive control: Anti-chick (Alexa 555): 1:100 dilution (for FACS compensation) • iii. Positive control: Anti-chick (Alexa 488): 1:100 dilution (for FACS compensation) • 14. Incubate on ice 30 min and keep in dark (lid on ice bucket) • 15. Spin down cells at 3 min at 8000 RPM, 4° C. and vacuum supernatant • 16. Repeat steps 2-4: Add 1 mL PBS/BSA, pellet cells, vacuum supernatant • 17. Leave pelleted cells on ice until use. Fluorescent Cell Sorting
Commercially available flow cytometers can measure fluorescence emissions at the single-cell level at four or more wavelengths, at a rate of approximately 50,000 cells per second (Ashcroft and Lopez, 2000). Typical flow cytometry data are shown in FIG. 4-7, in which yeast have been labeled with two different color fluorescent probes to measure protein expression levels and bound soluble ligand (in this case integrin receptor). A ‘diagonal’ population of cells results due to variation in protein expression levels on a per cell basis: cells that express more protein will bind more ligand. The equilibrium binding constant (Kd) can be determined by titration of soluble ligand, and the dissociation rate constant (koff) can be measured through competition binding of unlabeled ligand. With yeast, a monodispersity of tethered proteins exists over the cell surface, and soluble ligand are used for binding and testing, such that avidity effects are not observed, unlike other display methods using immobilized ligands. To date, the properties of most proteins expressed on the yeast cell surface mimic what is seen in solution in terms of stability and binding affinity (Bader et al., 2000; Feldhaus et al., 2003; Holler et al., 2000; VanAntwerp and Wittrup, 2000). See, also, Weaver-Feldhaus et al., “Directed evolution for the development of conformation-specific affinity reagents using yeast display,” Protein Engineering Design and Selection Sep. 26, 2005 18(11):527-536.
Cell sorting was carried out on a FACSVantage (BD Biosciences) multiparameter laser flow cytometer and cell sorter. Before sorting, fluorescent staining was carried out as described above, so that analysis of integrin binding and c-myc expression levels were detected, as described above. […]

[2] = direct tissue sampling, read-out: Kidney uptake, mean
[3] = direct tissue sampling, read-out: Liver uptake, mean
[4] = direct tissue sampling, read-out: Muscle uptake, mean
[5] = direct tissue sampling, read-out: Tumor uptake, mean

Q: Which tissue uptake at 0.5 h [1, 2] does the source give for CC(C)[C@@H]1NC(=O)[C@@H]2CSSC[C@H](NC(=O)CNC(=O)CN3CCN(CC(=O)O)CCN(CC(=O)O)CCN(CC(=O)O)CC3)C(=O)N3CCC[C@H]3C(=O)N[C@@H](CCC(N)=O)C(=O)NCC(=O)N[C@@H](CCCNC(=N)N)C(=O)NCC(=O)N[C@@H](CC(=O)O)C(=O)N[C@@H](Cc3c[nH]c4ccccc34)C(=O)N[C@@H](C)C(=O)N3CCC[C@H]3C(=O)N[C@@H]([C@@H](C)O)C(=O)N[C@@H](CO)C(=O)N[C@H]3CSSC[C@H](NC1=O)C(=O)NCC(=O)N1CCC[C@H]1C(=O)N[C@@H](CC(N)=O)C(=O)NCC(=O)N[C@@H](Cc1ccccc1)C(=O)N[C@H](C(=O)NCC(=O)O)CSSC[C@H](NC(=O)[C@H](CC(=O)O)NC(=O)[C@H](CO)NC(=O)[C@H](CC(=O)O)NC(=O)[C@H](CCC(N)=O)NC(=O)[C@H](CO)NC3=O)C(=O)N[C@@H](CCCNC(=N)N)C(=O)N[C@@H](C)C(=O)NCC(=O)N2 [^64Cu-DOTA-knottin 2.5D, metal not drawn] ({DOTA}-GCPQGRGDWAPTSCSQDSDCRAGCVCGPNGFCG-OH; disulfide 2-24, 14-26, 20-32; C-terminus assumed) here?
A: Its tissue uptake at 0.5 h is 7.26 %ID/g.

Q: And the tissue uptake at 0.5 h [1, 3]?
A: The tissue uptake at 0.5 h was 1.39 %ID/g.

Q: What about the tissue uptake at 0.5 h [1, 4] of the same molecule?
A: The tissue uptake at 0.5 h was 0.45 %ID/g.

Q: What about the tissue uptake at 0.5 h [1, 5] of the same molecule?
A: Its tissue uptake at 0.5 h is 4.94 %ID/g.

Q: What about the tissue uptake at 1 h ([1]; 1 h post injection, direct tissue sampling, read-out: Kidney uptake, mean) of the same molecule?
A: The tissue uptake at 1 h was 4.06 %ID/g.

Q: And the tissue uptake at 1 h ([1]; 1 h post injection, direct tissue sampling, read-out: Liver uptake, mean)?
A: Its tissue uptake at 1 h is 1.29 %ID/g.

Q: And the tissue uptake at 1 h ([1]; 1 h post injection, direct tissue sampling, read-out: Muscle uptake, mean)?
A: Its tissue uptake at 1 h is 0.28 %ID/g.

Q: And the tissue uptake at 1 h ([1]; 1 h post injection, direct tissue sampling, read-out: Tumor uptake, mean)?
A: Its tissue uptake at 1 h is 4.47 %ID/g.

Q: And the tissue uptake at 2 h [1, 2]?
A: Its tissue uptake at 2 h is 3.45 %ID/g.

Q: What about the tissue uptake at 2 h [1, 3] of the same molecule?
A: The tissue uptake at 2 h was 0.98 %ID/g.

Q: What about the tissue uptake at 2 h [1, 4] of the same molecule?
A: Its tissue uptake at 2 h is 0.07 %ID/g.

Q: And the tissue uptake at 2 h [1, 5]?
A: The tissue uptake at 2 h was 2.89 %ID/g.

Q: And the tissue uptake at 4 h [1, 2]?
A: Its tissue uptake at 4 h is 3.26 %ID/g.

Q: And the tissue uptake at 4 h [1, 3]?
A: Its tissue uptake at 4 h is 0.92 %ID/g.

Q: What about the tissue uptake at 4 h [1, 4] of the same molecule?
A: The tissue uptake at 4 h was 0.06 %ID/g.

Q: And the tissue uptake at 4 h [1, 5]?
A: The tissue uptake at 4 h was 2.24 %ID/g.

Q: And the tissue uptake at 25 h [1, 2]?
A: The tissue uptake at 25 h was 1.75 %ID/g.

Q: What about the tissue uptake at 25 h [1, 3] of the same molecule?
A: Its tissue uptake at 25 h is 0.53 %ID/g.

Q: What about the tissue uptake at 25 h [1, 4] of the same molecule?
A: Its tissue uptake at 25 h is 0.03 %ID/g.

Q: What about the tissue uptake at 25 h [1, 5] of the same molecule?
A: Its tissue uptake at 25 h is 1.31 %ID/g.

Q: What about the “PET tumor targeting / imaging signal, in words” value (U87MG tumor) of the same molecule?
A: Its value is “clearly targeted the U87MG tumor”.

Q: Which results are given for N=C(N)NCCC[C@@H]1NC(=O)[C@H](CCCCN)NC(=O)[C@@H](Cc2ccc(O)cc2)NC(=O)[C@H](CC(=O)O)NC(=O)CNC1=O [c(RGDyK), reference compound]?
A: tissue uptake at 1 h ([1]; Tumor uptake): 2.32 ± 0.55 %ID/g; tissue uptake at 1 h ([1]; non-specific liver uptake): ~4 %ID/g

Q: Which “integrin binding compared in words” value (αvβ3 integrin) does the source give for “CVRLHESCLGQQVPCCDPCATCYCTGRGDSPASCYCRKLGTAMNPCSRT [RGD-AgRP#3]” here?
A: Its value is “RGD-AgRP #1<#2, <#3”.

Q: With “GCVRLHESCLGQQVPCCDPCATCYCRGDCYCRKLGTAMNPCSRT [RGD-AgRP#1]” as the molecule, how does the “integrin binding compared in words” value (αvβ3 integrin) read?
A: The value was “RGD-AgRP #1<#2, <#3”.

Q: With “GCVRLHESCLGQQVPCCDPCATCYCTGRGDSCYCRKLGTAMNPCSRT [RGD-AgRP#2]” as the molecule, how does the “integrin binding compared in words” value (αvβ3 integrin) read?
A: Its value is “RGD-AgRP #1<#2, <#3”.

Q: Which “integrin binding compared in words” value (αvβ3 integrin) does the source give for “RGD-EETI#2: EETI-II scaffold with native fibronectin RGD loop, RGD at insert positions 3-5, SEQ ID NO: 20 (GCTGRGDSPASSKCKQDSDCLAGCVCGPNGFCG)” here?
A: The value was “approximately half the affinity of RGD-EETI#3”.
